Patent US20140271603A1 (LABORATOIRE FRANCAIS DU FRACTIONNEMENT ET DES …, published 2014)
Residue numbers refer to the chain shown, from its start. Blank lines part the entries; values can stand above or below the binder they belong to.

Legend:
[1] = target: T1, C3 convertase of the alternative pathway (C3bBb) formed on C3b-coated wells (UniProt P01024 749-1663; P01024 23-667; P00751 260-764, limits assumed); assay: cell-based or functional assay
[2] = target: T1, C3 convertase of the alternative …; assay: cell-based or functional assay; remark: listed apart in the source

T1 sequence (P01024 749-1663 limits assumed, chain 1 of 3): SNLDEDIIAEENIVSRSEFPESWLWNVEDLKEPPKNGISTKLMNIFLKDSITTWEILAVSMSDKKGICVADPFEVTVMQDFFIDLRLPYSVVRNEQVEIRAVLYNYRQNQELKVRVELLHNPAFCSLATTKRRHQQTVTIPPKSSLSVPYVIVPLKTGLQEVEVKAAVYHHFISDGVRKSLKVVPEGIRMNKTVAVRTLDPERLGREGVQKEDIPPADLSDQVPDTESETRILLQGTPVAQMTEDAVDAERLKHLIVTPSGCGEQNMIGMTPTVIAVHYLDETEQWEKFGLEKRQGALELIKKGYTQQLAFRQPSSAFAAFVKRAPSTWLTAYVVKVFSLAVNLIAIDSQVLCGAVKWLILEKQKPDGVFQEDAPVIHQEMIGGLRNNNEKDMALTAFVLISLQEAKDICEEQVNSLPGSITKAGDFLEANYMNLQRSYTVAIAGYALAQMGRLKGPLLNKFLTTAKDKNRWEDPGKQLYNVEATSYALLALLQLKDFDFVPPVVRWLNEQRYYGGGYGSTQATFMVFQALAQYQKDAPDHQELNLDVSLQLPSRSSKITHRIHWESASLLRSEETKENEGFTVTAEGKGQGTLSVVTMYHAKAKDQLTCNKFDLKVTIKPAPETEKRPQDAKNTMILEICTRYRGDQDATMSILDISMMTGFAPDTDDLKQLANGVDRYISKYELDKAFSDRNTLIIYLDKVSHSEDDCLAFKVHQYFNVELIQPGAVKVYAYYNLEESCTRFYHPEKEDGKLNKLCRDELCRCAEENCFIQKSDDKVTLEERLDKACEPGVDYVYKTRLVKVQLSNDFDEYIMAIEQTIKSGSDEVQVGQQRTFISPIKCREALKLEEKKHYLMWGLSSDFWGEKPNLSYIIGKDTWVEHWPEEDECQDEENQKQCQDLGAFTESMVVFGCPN
T1 sequence (P01024 23-667 limits assumed, chain 2 of 3): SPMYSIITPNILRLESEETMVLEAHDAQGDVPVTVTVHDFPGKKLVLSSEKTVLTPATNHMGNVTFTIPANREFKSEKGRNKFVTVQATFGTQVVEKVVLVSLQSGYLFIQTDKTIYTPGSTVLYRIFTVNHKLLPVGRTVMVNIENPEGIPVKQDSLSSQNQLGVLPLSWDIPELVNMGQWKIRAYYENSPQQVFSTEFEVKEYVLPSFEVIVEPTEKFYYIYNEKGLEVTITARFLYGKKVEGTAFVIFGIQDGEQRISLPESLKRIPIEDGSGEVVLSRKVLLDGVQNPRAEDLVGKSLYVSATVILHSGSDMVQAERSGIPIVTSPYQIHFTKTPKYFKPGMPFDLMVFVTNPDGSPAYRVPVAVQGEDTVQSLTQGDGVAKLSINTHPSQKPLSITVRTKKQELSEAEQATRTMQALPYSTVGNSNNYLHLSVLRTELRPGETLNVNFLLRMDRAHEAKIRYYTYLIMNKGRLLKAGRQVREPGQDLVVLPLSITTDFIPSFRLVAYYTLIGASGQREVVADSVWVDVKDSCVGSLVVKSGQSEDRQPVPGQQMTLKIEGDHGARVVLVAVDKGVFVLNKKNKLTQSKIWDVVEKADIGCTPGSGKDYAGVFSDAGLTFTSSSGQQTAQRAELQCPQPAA
T1 sequence (P00751 260-764 limits assumed, chain 3 of 3): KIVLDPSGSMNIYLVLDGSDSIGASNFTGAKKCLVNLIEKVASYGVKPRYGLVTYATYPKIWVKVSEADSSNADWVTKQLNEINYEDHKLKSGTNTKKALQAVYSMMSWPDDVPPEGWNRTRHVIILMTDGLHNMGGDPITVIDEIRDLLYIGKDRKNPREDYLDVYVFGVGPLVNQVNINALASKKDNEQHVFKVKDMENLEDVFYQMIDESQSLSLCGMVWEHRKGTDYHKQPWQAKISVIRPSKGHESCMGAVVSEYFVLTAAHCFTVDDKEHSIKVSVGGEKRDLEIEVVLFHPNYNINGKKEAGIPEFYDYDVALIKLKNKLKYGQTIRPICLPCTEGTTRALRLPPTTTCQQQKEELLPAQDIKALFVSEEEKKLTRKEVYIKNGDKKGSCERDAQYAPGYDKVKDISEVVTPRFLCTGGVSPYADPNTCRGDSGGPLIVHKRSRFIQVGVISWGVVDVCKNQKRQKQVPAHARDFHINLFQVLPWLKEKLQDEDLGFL

IC50, acceleration of the dissociation of C3 convertase (culture supernatant HEK MD2-H402) [1]: 0.052 µg/mL
B1: recombinant human factor H, H402 variant, produced in the HEK 293F cell line (other)
chain: EDCNELPPRRNTEILTGSWSDQTYPEGTQAIYKCRPGYRSLGNVIMVCRKGEWVALNPLRKCQKRPCGHPGDTPFGTFTLTGGNVFEYGVKAVYTCNEGYQLLGEINYRECDTDGWTNDIPICEVVKCLPVTAPENGKIVSSAMEPDREYHFGQAVRFVCNSGYKIEGDEEMHCSDDGFWSKEKPKCVEISCKSPDVINGSPISQKIIYKENERFQYKCNMGYEYSERGDAVCTESGWRPLPSCEEKSCDNPYIPNGDYSPLRIKHRTGDEITYQCRNGFYPATRGNTAKCTSTGWIPAPRCTLKPCDYPDIKHGGLYHENMRRPYFPVAVGKYYSYYCDEHFETPSGSYWDHIHCTQDGWSPAVPCLRKCYFPYLENGYNQNHGRKFVQGKSIDVACHPGYALPKAQTTVTCMENGWSPTPRCIRVKTCSKSSIDIENGFISESQYTYALKEKAKYQCKLGYVTADGETSGSITCGKDGWSAQPTCIKSCDIPVFMNARTKNDFTWFKLNDTLDYECHDGYESNTGSTTGSIVCGYNGWSDLPICYERECELPKIDVHLVPDRKKDQYKVGEVLKFSCKPGFTIVGPNSVQCYHFGLSPDLPICKEQVQSCGPPPELLNGNVKEKTKEEYGHSEVVEYYCNPRFLMKGPNKIQCVDGEWTTLPVCIVEESTCGDIPELEHGWAQLSSPPYYYGDSVEFNCSESFTMIGHRSITCIHGVWTQLPQCVAIDKLKKCKSSNLIILEEHLKNKKEFDHNSNIRYRCRGKEGWIHTVCINGRWDPEVNCSMAQIQLCPPPPQIPNSHNMTTTLNYRDGEKVSVLCQENYLIQEGEEITCKDGRWQSIPLCVEKIPCSQPPQIEHGTINSSRSSQESYAHGTKLSYTCEGGFRISEENETTCYMGKWSSPPQCEGLPCKSPPEISHGVVAHMSDSYQYGEEVTYKCFEGFGIDGPAIAKCLGEKWSHPPSCIKTDCLSLPSFENAIPMGEKKDVYKAGEQVTYTCATYYKMDGASNVTCINSRWTGRPTCRDTSCVNPPTVQNAYIVSRQMSKYPSGERVRYQCRSPYEMFGDEEVMCLNGNWTEPPQCKDSTGKCGPPPPIDNGDITSFPLSVYAPASSVEYQCQNLYQLEGNKRITCRNGQWSEPPKCLHPCVISREIMENYNIALRWTAKQKLYSRTGESVEFVCKRGYRLSSRSHTLRTTCWDGKLEYPTCAKR

IC50, acceleration of the dissociation of C3 convertase (sample: Purified FH PER.C6) [2]: 0.0451 µg/mL
IC50, acceleration of the dissociation of C3 convertase (culture supernatant PERC6 MD2-Y402) [1]: 0.0487 µg/mL
IC50, acceleration of the dissociation of C3 convertase (culture supernatant PERC6 MD3-Y402) [1]: 0.0559 µg/mL
B2: recombinant human factor H, Y402 variant, produced in the PER.C6 cell line (other)
chain: B1 chain with H384Y

IC50, acceleration of the dissociation of C3 convertase (sample: Purified FH HEK) [2]: 0.0506 µg/mL
IC50, acceleration of the dissociation of C3 convertase (culture supernatant HEK MD1-Y402) [1]: 0.0538 µg/mL
IC50, acceleration of the dissociation of C3 convertase (culture supernatant HEK MD2-Y402) [1]: 0.0507 µg/mL
IC50, acceleration of the dissociation of C3 convertase (culture supernatant HEK MD3-Y402) [1]: 0.0528 µg/mL
B3: recombinant human factor H, Y402 variant, produced in the HEK 293F cell line (other)
chain: B1 chain with H384Y

IC50, acceleration of the dissociation of C3 convertase (culture supernatant PERC6 MD2-H402) [1]: 0.0546 µg/mL
B4: recombinant human factor H, H402 variant, produced in the PER.C6 cell line (other)
chain: B1 chain
